Test results: PMC10841842, “Single-molecule quantitation of RNA-binding protein occupancy and stoichiometry defines a role for Yra1 (Aly/REF) in nuclear mRNP organization” (Cell reports, 2023)

Molecular target: the molecule itself
Test: pull-down; mRNP-SiMPull: lysate of cryo-ground yeast cross-linked with 0.2% formaldehyde, PrA-tagged bait pulled down on rabbit IgG Dynabeads at 8°C for 10 min (mTBT16 buffer: 20 mM HEPES-KOH pH 7.4, 12.5 mM KOAc, 2 mM MgCl2, 0.5% Triton X-100, 0.1% Tween 20), eluted by HRV3C protease, captured on a slide by mNG, HA or Yra1 antibody, TIRF imaging; spot counts and photobleaching steps, no-PrA control subtracted …

B1: Mft1, mNG-tagged (natural protein, S. cerevisiae, UniProt P33441 1-392, looked up)
chain: MPLSQKQIDQVRTKVHYSEVDTPFNKYLDILGKVTKLTGSIINGTLSNDDSKIEKLTEQNISQLKESAHLRFLDLQSSIDTKKVADENWETCQQETLAKLENLKDKLPDIKSIHSKLLLRIGKLQGLYDSVQVINREVEGLSEGRTSLVVTRAEWEKELGTDLVKFLIEKNYLKLVDPGLKKDSSEERYRIYDDFSKGPKELESINASMKSDIENVRQEVSSYKEKWLRDAEIFGKITSIFKEELLKRDGLLNEAEGDNIDEDYESDEDEERKERFKRQRSMVEVNTIENVDEKEESDHEYDDQEDEENEEEDDMEVDVEDIKEDNEVDGESSQQEDNSRQGNNEETDKETGVIEEPDAVNDAEEADSDHSSRKLGGTTSDFSASSSVEEVK
notes: Mft1, THO complex subunit, S. cerevisiae; also called THO complex subunit Mft1; source: S. cerevisiae BY4741/2-derived tagged strain, in cryo-ground cell lysate
In the case of B1, the “stoichiometry N” value is reported as 2.

B2: Hpr1-mNG (natural protein, S. cerevisiae, UniProt P17629 1-752, looked up)
chain: MSNTEELIQNSIGFLQKTFKALPVSFDSIRHEPLPSSMLHASVLNFEWEPLEKNISAIHDRDSLIDIILKRFIIDSMTNAIEDEEENNLEKGLLNSCIGLDFVYNSRFNRSNPASWGNTFFELFSTIIDLLNSPSTFLKFWPYAESRIEWFKMNTSVEPVSLGESNLISYKQPLYEKLRHWNDILAKLENNDILNTVKHYNMKYKLENFLSELLPINEESNFNRSASISALQESDNEWNRSARERESNRSSDVIFAADYNFVFYHLIICPIEFAFSDLEYKNDVDRSLSPLLDAILEIEENFYSKIKMNNRTRYSLEEALNTEYYANYDVMTPKLPVYMKHSNAMKMDRNEFWANLQNIKESDDYTLRPTIMDISLSNTTCLYKQLTQEDDDYYRKQFILQLCFTTNLIRNLISSDETRNFYKSCYLRENPLSDIDFENLDEVNKKRGLNLCSYICDNRVLKFYKIKDPDFYRVIRKLMSSDEKFTTAKIDGFKEFQNFRISKEKIPPPAFDETFKKFTFIKMGNKLINNVWKIPTGLDKIEQEVKKPEGVYEAAQAKWESKISSETSGGEAKDEIIRQWQTLRFLRSRYLFDFDKVNEKTGVDGLFEEPRKVEALDDSFKEKLLYKINQEHRKKLQDAREYKIGKERKKRALEEEASFPEREQKIKSQRINSASQTEGDELKSEQTQPKGEISEENTKIKSSEVSSQDPDSGVAGEFAPQNTTAQLENPKTEDNNAATSNISNGSSTQDMK
notes: Hpr1, THO complex component, S. cerevisiae; End of the tag read from the name; also called THO complex component Hpr1; source: S. cerevisiae BY4741/2-derived tagged strain, in cryo-ground cell lysate; not shown: mNeonGreen (mNG), C-terminal, kept
For B2, the “stoichiometry N” value was 2.
